The target of test [1] is M13KO7辅助噬菌体 (丝状噬菌体pVIII蛋白) (M13KO7 helper phage (filamentous phage)) (UniProt P69541). As to the kind of experiment: indirect ELISA, plate coated with 1.0×10^9 pfu/mL M13KO7 helper phage, purified antibody (1.0 mg/mL stock).
The target is the same in test [2]. Briefly: indirect ELISA, plate coated with 1.0×10^9 pfu/mL M13KO7 helper phage, ascites antibody.

In patent publication CN113087789A one finds 效价 (titer, purified antibody 1.0 mg/mL) (fold dilution) and 效价 (titer, ascites) (fold dilution) data, which are given here for one molecule.

Chain of UniProt P69541 (P69541 24-73): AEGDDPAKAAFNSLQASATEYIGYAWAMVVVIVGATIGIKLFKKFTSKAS

B1: 丝状噬菌体pVIII蛋白单克隆抗体P8E4 (antibody, V domains shown)
VH: QIQLQQSGAELARPGASVRLSCKRSGYTFTTYWLQWLKQRAGQGLEWIGAIYPGNGDTRYFPNFKGQATLTADRSSSTRYLQLSSLASESSAVYYCASLLRTDFAMDYRGQGTSVTVSS
VL: DIVLTQSPASEAVSLGQRATISCRTSESVDTYAISFIHWYQQKPGWPPKLLIYRASNAESGIPARFAGSGSRPDFTLSIRPVEADDVATYYCQQSDKDPGSFGGGTKLEIK
With B1, the 效价 (titer, purified antibody 1.0 mg/mL) (fold dilution) in test [1] worked out at 6400. Further, in test [2], the 效价 (titer, ascites) (fold dilution) came to 102000.
